This data set is described as follows: soluble on expression in E. coli; label from the status in PepcDB or PDB records.
As for “MSLGQSAQLRSWLQAMPKGGDLHNHLSGSVYAEDYLQWASEDGACVQLDDLSLRAPPCVAGQVPARGLSTRDVALYGRVVDALSMRNHLASPSQPTGHGQFFSTFGKFDAVVRARVADTVAAVLEQAARDRVPYVEIIANPPQMDDAAQRMQALPWHGTDDAANLRELQDALPPLVQAAQRNLADLDAQVRHVLQCDQAQPRAACQVQYRYVPYVLRVLPAPQVFGQMALAHALVAAGGSRAVAVNIVAPEDNPVAVADYARHMAMFRFFAQRYPGVPLSLHAGELTLGLVPPAQLRSHIRQAVDAGARRIGHGVDLPYEDDAQELLQRMRRDQVAVEINLTSNDVILGVTGAAHPLAMYLRAGVPVVLSTDDAGVSRADMTHEYQRAVQEQGIEYPTLKQLARNGLTYSFLPGASLWSANGKAAQACATALQRETDDAGCQAFRQSSEKARLQWQLETDLAQYERMLMEQRKVQTEGHHHHHH”, the “soluble on expression in E. coli” value is recorded as “not soluble”.
Regarding “MQQLKKIGFNEYEAKSYVSLVKQGPVTAYQVSKDSGVPRARIYEILGNLVEKGIVMKEEINDTTRYSPLPVEIFLQKAQSEWQSTYEGISDSLKKLETSEEKTDNRVITLKDNQTIISYCQALIKKAERRIVISMWDEMYEALKEDLSEVTDKVTIQGITLHVENPIKNLEAHRITPYTETLSTEHWFIVSIDSKEMIYGPSLAERNIAFYTDDPVHIYLLEDYVWHDVLVNRLVRRNQDDLQQWITAERKSFFMGK”, the “soluble on expression in E. coli” value is recorded as “not soluble”.
For “SLKINQEEDTVSSEKNKLCDNNNNNNMVHTRHIYNVCELNKCLRENKLIPYNNIYKMKHLYLNILDTFDENILKHVNKAHLFIDSVIQKKKNILIHSMAGISRCSSIILSYVSKKNKKGIEYNFNLLKSKYPFAHPNENFYRQLLLYEKMNYTLDGCTDYHNIYK” the value was “not soluble”; for “VQEPLRVPPSAPARLVVLASGTGSLLRSLLDAAVGDYPARVVAVGVDRECRAAEIAAEASVPVFTVRLADHPSRDAWDVAITAATAAHEPDLVVSAGFMRILGPQFLSRFYGRTLNTHPALLPAFPGTHGVADALAYGVKVTGATVHLVDAGTDTGPILAQQPVPVLDGDDEETLHERIKVTERRLLVAAVAALATHGVTVVGRTATMGRKVTIG”, “soluble”.
Regarding “SITKPQNKSAKLVDGELLVKASVESFGLEDEKYWFLVCCELSNGKTRQLKRYYQDFYDLQVQLLDAFPAEAGKLRDAGGQWSKRIMPYIPGPVPYVTNSITKKRKEDLNIYVADLVNLPDYISRSEMVHSLFVVLNNGFDREFERDENGSHHHHHH”, the “soluble on expression in E. coli” value is reported as “soluble”.
As for “MKILILGNGQVGSTVAQNLAAIPNNDVTVIDIDEKALQETGSRLDVQTVFGNGASPFTLERAGAEDADLLLALSRSDETNIVACKVAADLFNIPGRIARVRSSEYLEYLSPKLENNENGSLSIFGITETISPEQLVTEQLAGLIDCPGALQVLRFADDRVRMVIIQARRGGLLVGRSIADIAQDLPDGADCQICAVYRNNRLIVPAPQTVIIEGDEILFAAAAENIGAVIPELRPKETSTRR”, the “soluble on expression in E. coli” value is “not soluble”.
Consider “MANWQCVKQCGACCNLDPAERPEIEDYLTPDELEIYFSMVGEGGWCVNFDHTTRECRIYSTRPRFCRVEPDIFQDMYGIESEELNDFAIECCRQQIEGVYGDRSLEMLRFDKAVGILEHHHHHH”, for which the “soluble on expression in E. coli” value is given as “soluble”.
Then “MNFMEIGTPLFEGAKKLLWLGGGELGKEMVIEAQRMGIETVVVDRYDMAPAMHVAHRKYVVNMLDGNAIKSIIKKENPDAIITEIEAINTDALLELESEGYKVIPNAKAVKICMNRIELRKLAAEKVKVPTTQYGFAENPEEVKKICKDIGYPCIIKPEMSSSGHGHEVVYNESEVEQKFKEAITHARGKSEQVIVEEYVKIDRELTVLTYRYLDDKGVVTKTITPIEHQRPSDVYYYVESWHPSTVDKDIIERAQEYATRVVNELGGFGIFGVEIIVSGNRVLFSEVSPRPHDTGLVTMASLDINEFQIHVRSALGLPTPEVKIVSPAAAHVILANNEGWAPKFLNVEKALQIPGVQIRLFGKPSTYYKRRMGVVLATGNTVEEAKEKARKAASLVLVT”, with “soluble”.
Turning to “MWPRNDVHMDDGSMTPEDQEPVTDNDMEYNDNGEESSYSNGSSSSYNADKLSSSRPLQHKLDLSASPSRNNDLNPRVEHLIALFKDLSSAEQMDAFTRLLQESNMTNIRQLRAIIEPHFQRDFLSCLPVELGMKILHNLTGYDLLKVAQVSKNWKLISEIDKIWKSLGVEEFKHHPDPTDRVTGAWQGTAIAAGVTIPDHIQPCDLNVHRFLKLQKFGDIFERAADKSRYLRADKIEKNWNANPIMGSAVLRGHEDHVITCMQIHDDVLVTGSDDNTLKVWCIDKGEVMYTLVGHTGGVWTSQISQCGRYIVSGSTDRTVKVWSTVDGSLLHTLQGHTSTVRCMAMAGSILVTGSRDTTLRVWDVESGRHLATLHGHHAAVRCVQFDGTTVVSGGYDFTVKIWNAHTGRCIRTLTGHNNRVYSLLFESERSIVCSGSLDTSIRVWDFTRPEGQECVALLQGHTSLTSGMQLRGNILVSCNADSHVRVWDIHEGTCVHMLSGHRSAITSLQWFGRNMVATSSDDGTVKLWDIERGALIRDLVTLDSGGNGGCIWRLCSTSTMLACAVGSRNNTEETKVILLDFDAVYP”, the “soluble on expression in E. coli” value is reported as “not soluble”.
Turning to “MSLLRALPEVAEPEGVDFIEIATGRLGETIRVLHQLGFRLGGHHCSKQDYQVWTQGDVRIVVCDRGVTGAPTTISAMGFDTPDPEAAHARAELLRAQTIDRPHIEGEVDLKGVYAPDGVELFFAGPSPDGMPEWLPEFGVEKQEAGLIEAIDHVNFAQPWQHFDEAVLFYTALMALETVREDEFPSPIGLVRNQVMRSPNDAVRLLLSVAPEDGEQGDFLNAAYPEHIALATADIVAVAERARKRGLDFLPVPENYYDDVQARFDLPQEFLDTLKENHLLYDRDENGEFLHFYTRTLGTLFFEVVERRGGFAGWGETNAPVRLAAQYREVRDLERGIPEGHHHHHH”, the “soluble on expression in E. coli” value is “soluble”.
As to “MKVLTVFGTRPEAIKMAPLVHALAKDPFFEAKVCVTAQHREMLDQVLKLFSIVPDYDLNIMQPGQGLTEITCRILEGLKPILAEFKPDVVLVHGDTTTTLATSLAAFYQRIPVGHVEAGLRTGDLYSPWPEEANRTLTGHLAMYHFSPTETSRQNLLRENVADSRIFITGNTVIDALLWVRDQVMSSDKLRSELAANYPFIDPDKKMILVTGHRRESFGRGFEEICHALADIATTHQDIQIVYPVHLNPNVREPVNRILGHVKNVILIDPQEYLPFVWLMNHAWLILTDSGGIQEEAPSLGKPVLVMRDTTERPEAVTAGTVRLVGTDKQRIVEEVTRLLKDENEYQAMSRAHNPYGDGQACSRILEALKNNRISLGSHHHHHH”, the “soluble on expression in E. coli” value was “soluble”.
In the case of “MSLSNHSSDIEVGHSMNLTNHFLVAMPSMKDPYFKRSVIYICEHNQDGAMGLMINAPIDITVGGMLKQVDIEPAYPQSHQENLKKPVFNGGPVSEDRGFILHRPRDHYESSMKMTDDIAVTTSKDILTVLGTEAEPEGYIVALGYSGWSAGQLEVELTENSWLTIEADPELIFNTPVHEKWQKAIQKLGISPAQLSSDAGHEGGSHHHHHH”, the “soluble on expression in E. coli” value is “soluble”.
As to “MCMDKNVMWLRERINKVIKALEENNMNGYLVNSKEELISKIEELTNSGDIVACGGSMSLFEAGVIDHLRSGRYEFLDRYKEGLKPEDIKKIYRDAFSSDVYFTSTNAITEEGEIYNVDGNGNRVAAMLYGPDKVIIVAGYNKIVENLSEAIQRNRRISAPANAKRLNKKTPCAKVGNCMDCKSPEKICREYTLIRSQSNSNRIHVIFLNEELGYLEHHHHHH”, the “soluble on expression in E. coli” value is on record as “soluble”.
Then “MRKFLSKTHHHTNPLWRVYRLVKFSKVFKNVIIIEFSKFIPSMVLKRHIYKQLLNINIGNQSSIAYKVMLDIFYPELITIGSNSVIGYNVTILTHEALVDEFRYGPVTIGSNTLIGANATILPGITIGDNVKVAAGTVVSKDIPDNGFAYGNPMYIKMIRR”, with “not soluble”.
Then “MNNLIKAINELKKEKNAIILGHYYQKGEIQDIADYVGDSLALAQLAAKTEADIIVMCGVHFMGETAKVLCPDKKVLVPDMEAGCSLADSCPADQFAQFVKEHPGHTVISYVNTTAAVKAVTDVVVTSTNARQIVESFPKDEKIIFGPDRNLGNYINSVTNRNMLLWDGACHVHEQFSVEKIVELKTQHPEALVLAHPECKSTVLKLADVVGSTAALLKYAVNHPENTYIVATESGILHEMQKKCPQTTFIPAPPNDSTCGCNECSFMRLNTLEKLYECLKNESPEITVDPEIAEKAVRPIQRMLEISAKLGL”, with “not soluble”.
For “MGSDKIHHHHHHMTPTADIWFKDTLAAHFTRDGDQTTFSYTADYAGPPIATSLPINSEPVITRSGAIPPFFAGLLPEGRRLSSLRRNIKASADDELSLLLAVGADPVGAVAIFPHGENPQPAPPTVDFDDELDFSAALTESGIADPVALAGVQDKASARTIAVPVASDAILKLSPPEYPYLVENEAACYQLLTKNKLRIELSKVEVLHDKHGRSGLLVHRFDRTPKGKIPVEDAGQVLGIWPADKYLVSYEDIAQALTKVCASPILAMRNLAFQIAVAWLSGNGDLHAKNISIINKGRGFEISPIYDIPATAVYGDTTMALEIQGSKKDLSQKKFLKFCTSIGLPEKTAMSVANAALLATENAAETILASGNFDTRMNRDLARVLKHRRSAWGA”, the “soluble on expression in E. coli” value is listed as “not soluble”.
Take “MAHHHHHHMRRTVVQRVAPWVPPPRHDIKVTMPPPPGGEVGGRFGVSQGYSDRLARTPYWKRMALSTYKLRMMENATRYPMSEHRPGEYDIRYLPTPYPCTIRNRPLLEVGEPRQIPSIRIPVIFLVNLFDEAKGCWFGRRYETVYVERQFMREELMPQRYAIYATPEAYKLLGLPVVNHHTHEEIPKTPREYEKLLERQRYDEERWKYTIEYLFRKYEDGPPELLDRPEDGWDGSEEIALSSVAGAGRDGVVSQRKGPVKQRKARKIKLF”: the “soluble on expression in E. coli” value was “not soluble”.
Regarding “MGSDKIHHHHHHMKIAVVGGTFWDIFIFGENPHSSTIRESPGGSGLNVAYGLFLLGHTVDFYSNIGDDWRGKQIVELLEKASFDTSHMSTIQGGKTGIFIAHNDKPLAVDPGVNRKEMKLPSLSEYDLVFVTGEIPEKTIRKICENTKNVILDVGPGARFDTSDLNALVIGNERECSFRKCDVVKMGSKGARWGEVYVPGNGISYPHSIGLGDLFDIVFVHHLPLGKSKKEILEEAVKCSQILGQKENVTPFERISFLEPLSTKDDTLECPDESKDASHHGG”, the “soluble on expression in E. coli” value was “not soluble”.
Regarding “MSKPKYPFEKRLEVVNHYFTTDDGYRIISARFGVPRTQVRTWVALYEKHGEKGLIPKPKGVSADPELRIKVVKAVIEQHMSLNQAAAHFMLAGSGSVARWLKVYEERGEAGLRALKIGTKRNIAISVDPEKAASALELSKDRRIEDLERQVRFLETRLMYLKKLKALAHPTKK”, the “soluble on expression in E. coli” value is “not soluble”.
Consider “MSYNSIRLPQDLPIYYKNFFPVKPFTKWLRYGQNNGDYFNRREFAFILADDVHIRYRSYNDEHAFFKALSSTNPEKLDIGAVYNHEPINNKRHTDYQAVERELVFDIDLTDYDPVRNCCKDATVCPKCWKFMVLAVKILDFQLEDMFDFKARMWVFSGRRGVHCWVGDKKARMLNNYQRSAIATRLNLFKKNGQCEVTEGRAKMTKVPPIVRDAFNVALKDGVFEKMIYDQGWLDKEDFITEYKFMSEVGRDDLRSLSETYKTPQERWNMIRGLFDDDYRKSLSPKDGLLDFKMQGRDRNYLLYFVLQRCYPRLDVNVSTGTNHLLKSPFCIHPKTGNVAVPLNVGKIEEFDVSKCPRIDHVVEELSSLLAERGNDENEDSKNRKFLAYKHGALAPYVENFEKFVSACIS”, for which the “soluble on expression in E. coli” value is “not soluble”.
